For orientation: EC50 means the concentration that produces a half-maximal response. The IC50 is the concentration that inhibits the measured activity by half.

Two molecules from patent US20220306744A1 (CRESCENDO BIOLOGICS, published 2022) can be followed below.

The target in experiment [1] is T1, human PD-1 expressed on cells (CHO TREX human PD1 cell line, full-length human PD-1 sequence) (human, UniProt Q15116 21-288).
T1 construct: Also used for human PD-1 on Jurkat reporter cells, on PathHunter cells and on PHA-stimulated human CD4+ T cells; also called CHO human PD1 cells; CHO human PD-1 cells
T1 sequence (Q15116 21-288): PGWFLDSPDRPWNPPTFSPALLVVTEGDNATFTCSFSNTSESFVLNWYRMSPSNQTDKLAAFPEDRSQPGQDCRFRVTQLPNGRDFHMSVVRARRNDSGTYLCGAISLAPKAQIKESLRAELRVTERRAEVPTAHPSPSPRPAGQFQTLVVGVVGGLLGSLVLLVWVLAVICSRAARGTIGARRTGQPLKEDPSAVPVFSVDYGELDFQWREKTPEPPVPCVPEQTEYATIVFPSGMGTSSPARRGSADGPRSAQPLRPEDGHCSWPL
The experiment in a line: FMAT epitope competition, CHO human PD1 cells; competitor Epitope 2 (2.1-Strep tagged protein). The method, then:
For the epitope competition assay reagents were prepared in FMAT assay buffer.
Multivalent molecules 1.92b-4GS-1.39a and 1.92b-4gs-1.62a were tested in the epitope competition assay as described above. 1.92b-4GS-1.39a and 1.92b-4gs-1.62 did cross compete with 1.1-Strap tagged and 2.1-Strap tagged proteins for binding to the cells.
Plates were incubated for a minimum of 1.5 hours at room temperature then fluorescence measured in the FL2 (502 nm-537 nm) and FL5 (677-800 nm) channels on the Mirrorball plate reader (TTP) following excitation at 488 nm and 640 nm. Data was expressed as a % of the total binding control (i.e. % control) after subtraction of the background signal determined from the non-specific binding control wells.

For experiment [2], the target named is T1, human PD-1 expressed on cells (CHO TREX …). The experiment can be described thus: FMAT binding to CHO human PD-1 cells.
Experiment [3] has the same target. The experiment can be described thus: epitope competition assay on CHO human PD1 cells (labelled VH not specified) after 7 days in mouse serum. The method, then: (§1) Serum stability of VH and multivalent VH constructs was assessed by measurement of their activity following incubation for 0, 1, 4 or 7 days both in mouse (Sigma M5905) and human serum. […] Minimal loss of activity was observed following incubation with serum.

Experiment [4] shares this target. The experiment can be described thus: flow cytometry, PHA-stimulated human CD4+ T cells, Donor 3. On the procedure:
Binding of monovalent single domain antibodies and multivalent binding agents to T cells was measured using flow cytometry. Peripheral blood mononuclear cells (PBMCs) were isolated from human blood by density gradient centrifugation then CD4+ T cells purified using a negative selection isolation kit according to the manufacturer's protocol (Miltenyi Biotech cat no 130-096-533). T-cells were stimulated with 2.5 μg/ml PHA for 3 days in RPMI media supplemented with 10% FBS, 2 mM Glutamine, 1× Pen/Strep. Cells were transferred into 96 well plates (75000 per well), blocked for 10 mins with PBS/1% BSA, then incubated with serially diluted VH in staining buffer (PBS/1% BSA) for 1 hour at 4° C. Cells were washed with staining buffer by centrifugation then incubated with 10 μg/ml biotinylated Anti His antibody for 40 mins at 4° C. Cells were washed again then stained with Streptavidin Alexa Fluor-488 (10 μg/ml) and 1:5000 diluted Live Dead near IR stain (Molecular Probes cat no. L10119) for 30 mins at 4° C. After further washing cells were fixed and fluorescence measured by flow cytometry.
(In flow cytometry, cells or beads pass a laser one at a time.)

Experiment [5] has as its target T2, cynomolgus PD-1 recombinant protein (Acro Biosystems cat no. PD-1-C5254) (cynomolgus).
T2 construct: Bought protein; also called cyno PD1
The experiment in a line: HTRF binding assay, 2 nM recombinant PD1, anti His-D2 and anti human-Fc cryptate. On the procedure: (§2) Purified VH were tested for their ability to bind to human PD1 (R&D Systems cat no. 1086-PD), cynomolgus PD-1 (Acro Biosystems cat no. PD-1-C5254) and mouse PD1 (R&D Systems cat no. 1021-PD) in an HTRF Binding assay format. All reagents and serially diluted VH were prepared in assay buffer containing PBS, 0.1% BSA and 0.4M Potassium Fluoride. Samples or assay buffer (non-specific binding) were incubated with 2 nM human/cynomolgus or mouse PD1, 1 nM Anti human-Fc Cryptate PAb (Cisbio cat. no. 61HFCKLB) and 30 nM anti His-D2 (CisBio cat no 61HISDLA) in black 384-shallow well assay plates for a minimum of 3 hours at room temperature. Time-resolved fluorescent emission at 620 nm and 665 nm was measured following excitation at 337 nm on the BMG PHERAstar plate reader. The HTRF ratio were calculated ((665 nm emission/620 nm emission)*10000) and the data corrected for (non-specific binding) to give the specific binding signal.
(Time-resolved FRET reads energy transfer from a long-lived donor to a nearby acceptor.)

For experiment [6], the target named is T3, recombinant human PD-1 Fc chimera (human, UniProt Q15116 25-167).
T3 construct: Bought protein (R&D 1086-PD in the HTRF assay); also called human PD-1-hu Fc; huPD-1Fc; not shown: human Fc
T3 sequence (Q15116 25-167 limits assumed, change not shown): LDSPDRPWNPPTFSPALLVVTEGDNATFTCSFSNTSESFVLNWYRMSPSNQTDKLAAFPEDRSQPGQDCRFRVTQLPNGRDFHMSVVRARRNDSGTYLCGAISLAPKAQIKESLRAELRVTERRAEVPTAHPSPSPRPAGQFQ
The experiment is described as above. The method, then: as §2

Experiment [7] addresses T1, human PD-1 expressed on cells (CHO TREX …). The experiment can be described thus: epitope competition assay on CHO human PD1 cells (labelled VH not specified) after 0 days in mouse serum. The method, then:
as §1

Experiment [8] shares this target. The experiment can be described thus: epitope competition assay on CHO human PD1 cells (labelled VH not specified) after 4 days in mouse serum. On the procedure:
as §1

Experiment [9] addresses T4, mouse PD-1 protein (R&D Systems cat no. 1021-PD) (mouse, UniProt Q02242 25-167).
T4 construct: Bought protein
T4 sequence (looked up): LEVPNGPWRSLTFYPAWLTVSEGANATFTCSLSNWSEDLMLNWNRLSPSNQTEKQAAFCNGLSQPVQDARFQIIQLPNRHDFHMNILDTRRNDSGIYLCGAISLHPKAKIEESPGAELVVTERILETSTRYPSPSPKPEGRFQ
The experiment can be described thus: HTRF binding assay, 2 nM mouse PD1. The method, then: as §2

B1: 1.92b-4GS-1.39a (other)
chain: EVQLVESGGGLVKPGGSLRLSCAASGFTFSDESMTWMRQAPGKGLEWVSYISSGGGVKFYADSVKGRFTISRDNAKNSLYLQMNSLRAEDTAVYYCAREAPLRLGESPHDAFDISGQGTMVTVSSGGGGSGGGGSGGGGSGGGGSEVQLVESGGGLVQPGRSLRLSCAASGFTFDDYALHWVRQAPGKDLEWVSGISWNGGSYGYADSVKGRFTISRDNAKNSLYLQMNSLRAEDTALYYCVREKGPGLTGSTADYYGLDAWGQGTMVTVSS
notes: Biparatopic VH-linker-VH; built from its parts here because it is not clear whether 1112 is the protein or the nucleic acid
As to B1, the EC50 in experiment [1] is 1.2 nM; in [2], 0.2 nM; in experiment [4] it was 0.6 nM; in experiment [5], 3.7 nM; in experiment [6], 2.1 nM. For the same molecule, the IC50 in experiment [3] was 1.8 nM; in experiment [7], 1.2 nM; in [8], 1.6 nM. For the same molecule, the binding result in experiment [9] is reported as “no binding”.

B2: 1.92b-4GS-1.62a (other)
chain: EVQLVESGGGLVKPGGSLRLSCAASGFTFSDESMTWMRQAPGKGLEWVSYISSGGGVKFYADSVKGRFTISRDNAKNSLYLQMNSLRAEDTAVYYCAREAPLRLGESPHDAFDISGQGTMVTVSSGGGGSGGGGSGGGGSGGGGSEVQLVESGGGVVRPGGSLRLSCAASGFTFDDYAMSWVRQAPGKGLEWVSGITWNAGSTGYADSVKGRFTISRDNAKNSLYLQMNSLRAEDTALYYCVRDKYSYAWSYDDFDIWGQGTMVTVSS
notes: Biparatopic VH-linker-VH; also called 1.92-4GS-1.62a; 1.92b-4gs-2.12a
Consider B2, for which the EC50 in experiment [1] was determined as 1 nM; in [2], 0.2 nM; in experiment [4] it was 0.6 nM; in experiment [5], 3.9 nM; in experiment [6] it was 2.1 nM. The half-inhibitory concentration (IC50) came to 2 nM in experiment [3], 1.7 nM in experiment [7] and 1.8 nM in experiment [8]. The binding result in experiment [9] is “no binding”.
